From patent publication US20170044259A1 (CYTOMX THERAPEUTICS, published 2017)
Where a chain is given by its changes, count along the chain named. Names and notes keep the numbering of the source. One block for each binder: values may come before it.

How the values were obtained:
[1] = target: T1, human PD-1-Fc (R and D systems, Minneapolis, Minn.) (human, UniProt Q15116 25-167); test: plate ELISA on human PD-1-Fc; apparent KD
T1 construct: bought; also called hPD-1-Fc; hPD-1; not shown: Fc part of the bought fusion
T1 sequence (Q15116 25-167 limits assumed): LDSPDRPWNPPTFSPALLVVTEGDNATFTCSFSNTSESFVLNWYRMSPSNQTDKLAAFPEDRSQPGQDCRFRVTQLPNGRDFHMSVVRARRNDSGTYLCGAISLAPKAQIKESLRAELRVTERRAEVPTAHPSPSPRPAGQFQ

[2] = target: T1, human PD-1-Fc (R and D systems, …); test: plate ELISA on human PD-1-Fc; reference A1.5
[3] = target: T1, human PD-1-Fc (R and D systems, …); test: plate ELISA on human PD-1-Fc; reference A1.5; remark: listed apart in the source
[4] = target: T1, human PD-1-Fc (R and D systems, …); test: plate ELISA on human PD-1-Fc
[5] = target: T1, human PD-1-Fc (R and D systems, …); test: plate ELISA on adsorbed human PD-1-Fc, single site saturation fit
[6] = target: T1, human PD-1-Fc (R and D systems, …); test: plate ELISA on human PD-1-Fc; reference A1.4

B1: PD-1 1.5 PD019 2001 (antibody, human IgG4 S228P, kappa)
heavy: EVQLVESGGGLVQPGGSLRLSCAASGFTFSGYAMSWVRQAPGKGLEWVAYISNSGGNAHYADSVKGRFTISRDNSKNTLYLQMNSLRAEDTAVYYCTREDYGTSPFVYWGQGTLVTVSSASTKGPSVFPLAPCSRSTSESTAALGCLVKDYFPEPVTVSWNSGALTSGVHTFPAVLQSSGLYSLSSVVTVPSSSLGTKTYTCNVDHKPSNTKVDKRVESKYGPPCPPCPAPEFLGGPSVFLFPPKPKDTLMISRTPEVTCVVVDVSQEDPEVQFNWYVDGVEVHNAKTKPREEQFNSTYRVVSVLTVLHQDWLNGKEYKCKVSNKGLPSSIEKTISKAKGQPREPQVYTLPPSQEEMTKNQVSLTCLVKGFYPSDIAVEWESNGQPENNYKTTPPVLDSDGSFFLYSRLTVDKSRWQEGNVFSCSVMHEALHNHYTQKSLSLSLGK
light: QGQSGQGPCDQNPYFYPYVCHAGGGSSGGSISSGLLSGRSDNHGGGSDIQLTQSPSSLSASVGDRVTITCRASESVDAYGISFMNWFQQKPGKAPKLLIYAASNQGSGVPSRFSGSGSGTDFTLTISSMQPEDFATYYCQQSKDVPWTFGQGTKLEIKRTVAAPSVFIFPPSDEQLKSGTASVVCLLNNFYPREAKVQWKVDNALQSGNSQESVTEQDSKDSTYSLSSTLTLSKADYEKHKVYACEVTHQGLSSPVTKSFNRGEC
notes: also called PD-19
Kd [1]: 93 nM
ME (masking efficiency, Kd of the activatable antibody divided by Kd of the parental antibody) [2]: 30
Masking Efficiency [3]: 52

B2: Bb2 (antibody, human IgG4 S228P, kappa, V domains shown)
VH: QVQLVQSGAEVKKPGASVKMSCKASGYTFTDYYMDWVRQAPGQGLEWIGYIYPKNGGSSYAQKFQGRATLTVDKSTSTAYMELSSLRSEDTAVYYCARKVVATDYWGQGTLLTVSS
VL: DIQMTQSPSSLSASVGDRVTMTCKSSQSLLYSSNQKNYLAWYQQKPGKAPKLLIFWASIRESGVPSRFSGSGSGTDFTLTISSVQPEDFATYYCQQSDSYPWTFGQGTKLEIKR
notes: humanized, full length hIgG4/hKappa
binding result [4]: binds

B4: PD-1 1.4 PD002 2001 (antibody, human IgG4 S228P, kappa)
heavy: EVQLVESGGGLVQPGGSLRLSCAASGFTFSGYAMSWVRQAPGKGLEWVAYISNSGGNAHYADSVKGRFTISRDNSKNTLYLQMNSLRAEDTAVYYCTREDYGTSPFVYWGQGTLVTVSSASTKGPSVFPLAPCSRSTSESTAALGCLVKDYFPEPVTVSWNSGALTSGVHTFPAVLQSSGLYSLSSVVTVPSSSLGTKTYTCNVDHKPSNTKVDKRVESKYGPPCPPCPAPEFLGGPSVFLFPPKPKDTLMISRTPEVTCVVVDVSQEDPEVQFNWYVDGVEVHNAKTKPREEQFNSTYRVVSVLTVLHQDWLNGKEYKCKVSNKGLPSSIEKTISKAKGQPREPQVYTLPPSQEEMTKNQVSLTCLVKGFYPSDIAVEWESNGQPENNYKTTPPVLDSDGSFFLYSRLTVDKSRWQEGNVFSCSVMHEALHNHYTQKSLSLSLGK
light: QGQSGQGDVNCAIWYSVCTTVPGGGSSGGSISSGLLSGRSDNHGGGSDIQLTQSPSSLSASVGDRVTITCRASESVDSYGISFMNWFQQKPGKAPKLLIYAASNQGSGVPSRFSGSGSGTDFTLTISSMQPEDFATYYCQQSKDVPWTFGQGTKLEIKRTVAAPSVFIFPPSDEQLKSGTASVVCLLNNFYPREAKVQWKVDNALQSGNSQESVTEQDSKDSTYSLSSTLTLSKADYEKHKVYACEVTHQGLSSPVTKSFNRGEC
notes: also called PD02 (A1.4)
ME (masking efficiency, Kd of the activatable antibody divided by Kd of the parental antibody) [6]: 18

B5: D4 (antibody, human IgG4 S228P, kappa, V domains shown)
VH: EVQLVESGGGLVQPGGSLRLSCAHSGFSFSSYDMSWVRQAPGKGLEWVATISGGGRYTYYADSVKGRFTISRDNSKNTLYLQMNSLRAEDTAVYYCASNYYGFDYWGQGTLLTVSS
VL: DIQMTQSPSSLSASVGDRVTITCKASQDVGTAVAWYQQKPGKAPKLLIYWASTRHTGVPSRFSGSGSGTDFTLTISSVQPEDFATYYCQQYSSYPWTFGQGTKLEIKR
notes: as for B2
binding result [4]: binds

B6: PD-1 1.4 PD009 2001 (antibody, human IgG4 S228P, kappa)
heavy: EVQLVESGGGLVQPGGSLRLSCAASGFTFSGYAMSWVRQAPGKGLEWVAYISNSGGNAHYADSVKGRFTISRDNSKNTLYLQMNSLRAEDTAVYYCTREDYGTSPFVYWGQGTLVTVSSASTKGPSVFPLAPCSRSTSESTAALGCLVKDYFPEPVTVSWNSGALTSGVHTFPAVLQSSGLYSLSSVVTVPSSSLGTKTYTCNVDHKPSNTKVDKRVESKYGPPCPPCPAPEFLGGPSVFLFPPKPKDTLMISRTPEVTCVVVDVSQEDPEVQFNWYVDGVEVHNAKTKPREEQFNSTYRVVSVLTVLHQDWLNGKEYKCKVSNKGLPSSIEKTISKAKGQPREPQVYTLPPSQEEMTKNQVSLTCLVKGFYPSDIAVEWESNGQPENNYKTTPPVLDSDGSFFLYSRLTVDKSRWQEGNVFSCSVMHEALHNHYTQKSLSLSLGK
light: QGQSGQGAPRTCYTYQCSSFYTGGGSSGGSISSGLLSGRSDNHGGGSDIQLTQSPSSLSASVGDRVTITCRASESVDSYGISFMNWFQQKPGKAPKLLIYAASNQGSGVPSRFSGSGSGTDFTLTISSMQPEDFATYYCQQSKDVPWTFGQGTKLEIKRTVAAPSVFIFPPSDEQLKSGTASVVCLLNNFYPREAKVQWKVDNALQSGNSQESVTEQDSKDSTYSLSSTLTLSKADYEKHKVYACEVTHQGLSSPVTKSFNRGEC
notes: also called PD09 (A1.4)
ME (masking efficiency, Kd of the activatable antibody divided by Kd of the parental antibody) [6]: 2

B8: PD-1 1.4 PD003 2001 (antibody, human IgG4 S228P, kappa)
heavy: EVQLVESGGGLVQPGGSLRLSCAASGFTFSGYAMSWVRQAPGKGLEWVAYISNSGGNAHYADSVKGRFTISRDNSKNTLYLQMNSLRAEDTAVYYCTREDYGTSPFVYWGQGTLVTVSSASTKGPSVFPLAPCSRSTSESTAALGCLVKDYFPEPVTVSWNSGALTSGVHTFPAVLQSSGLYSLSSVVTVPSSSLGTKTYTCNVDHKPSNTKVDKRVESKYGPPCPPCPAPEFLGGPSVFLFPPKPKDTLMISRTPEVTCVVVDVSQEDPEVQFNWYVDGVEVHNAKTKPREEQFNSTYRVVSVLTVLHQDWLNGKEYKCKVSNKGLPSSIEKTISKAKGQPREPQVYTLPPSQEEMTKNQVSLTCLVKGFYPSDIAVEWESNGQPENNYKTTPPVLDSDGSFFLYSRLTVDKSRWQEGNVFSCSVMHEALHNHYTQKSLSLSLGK
light: QGQSGQGLVCPLYALSSGVCMGGGGSSGGSISSGLLSGRSDNHGGGSDIQLTQSPSSLSASVGDRVTITCRASESVDSYGISFMNWFQQKPGKAPKLLIYAASNQGSGVPSRFSGSGSGTDFTLTISSMQPEDFATYYCQQSKDVPWTFGQGTKLEIKRTVAAPSVFIFPPSDEQLKSGTASVVCLLNNFYPREAKVQWKVDNALQSGNSQESVTEQDSKDSTYSLSSTLTLSKADYEKHKVYACEVTHQGLSSPVTKSFNRGEC
notes: also called PD03 (A1.4)
ME (masking efficiency, Kd of the activatable antibody divided by Kd of the parental antibody) [6]: 5

B9: PD-1 1.4 PD010 2001 (antibody, human IgG4 S228P, kappa)
heavy: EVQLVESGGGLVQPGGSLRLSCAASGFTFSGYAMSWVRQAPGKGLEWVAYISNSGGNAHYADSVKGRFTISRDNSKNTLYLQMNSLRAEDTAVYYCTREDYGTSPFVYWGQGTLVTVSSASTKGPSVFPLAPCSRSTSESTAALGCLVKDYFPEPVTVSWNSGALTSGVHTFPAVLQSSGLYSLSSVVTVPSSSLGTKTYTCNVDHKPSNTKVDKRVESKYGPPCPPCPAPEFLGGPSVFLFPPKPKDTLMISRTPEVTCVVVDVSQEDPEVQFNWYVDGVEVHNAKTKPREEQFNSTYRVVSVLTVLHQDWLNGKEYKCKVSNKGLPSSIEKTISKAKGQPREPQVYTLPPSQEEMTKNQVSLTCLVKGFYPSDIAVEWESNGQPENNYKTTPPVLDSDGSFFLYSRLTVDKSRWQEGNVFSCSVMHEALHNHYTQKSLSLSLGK
light: B8 light with L8G, V9L, P11S, L12W, A14L, L15S, V19L, M21V, G22D
notes: also called PD-10 (A1.4); PD10 (A1.4)
ME (masking efficiency, Kd of the activatable antibody divided by Kd of the parental antibody) [6]: 13

B10: PD-1 1.4 PD008 2001 (antibody, human IgG4 S228P, kappa)
heavy: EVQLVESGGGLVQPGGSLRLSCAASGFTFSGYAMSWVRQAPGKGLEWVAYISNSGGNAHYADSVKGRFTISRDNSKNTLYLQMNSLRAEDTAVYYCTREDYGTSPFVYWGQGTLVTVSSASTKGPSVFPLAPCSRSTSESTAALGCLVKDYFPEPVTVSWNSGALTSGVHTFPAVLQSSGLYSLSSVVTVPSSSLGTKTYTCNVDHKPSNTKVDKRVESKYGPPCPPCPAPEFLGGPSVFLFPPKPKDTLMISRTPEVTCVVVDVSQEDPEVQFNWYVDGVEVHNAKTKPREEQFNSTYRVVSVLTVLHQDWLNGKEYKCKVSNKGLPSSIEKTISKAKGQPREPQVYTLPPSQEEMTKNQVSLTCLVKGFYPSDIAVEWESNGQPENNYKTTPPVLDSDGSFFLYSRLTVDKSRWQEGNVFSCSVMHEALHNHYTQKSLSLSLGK
light: B8 light with L8E, V9T, P11N, L12Q, A14E, L15R, V19L, M21F, G22A
notes: also called PD08 (A1.4)
ME (masking efficiency, Kd of the activatable antibody divided by Kd of the parental antibody) [6]: 13

B11: A1.0 (antibody, human IgG4 S228P, kappa, V domains shown)
VH: EVQLVESGGGLVQPGGSLRLSCAASGFTFSGYAMSWVRQAPGKGLEWVAYISNSGGNAHYADSVKGRFTISRDNSKNTLYLQMNSLRAEDTAVYYCTREDYGTSPFVYWGQGTLVTVSS
VL: DIQLTQSPSSLSASVGDRVTITCRASESVDNYGISFMNWFQQKPGKAPKLLIYAASNQGSGVPSRFSGSGSGTDFTLTISSMQPEDFATYYCQQSKDVPWTFGQGTKLEIKR
notes: as for B2
binding result [4]: binds

B12: A1.2 (antibody, human IgG4 S228P, kappa, V domains shown)
VH: B11 VH
VL: B11 VL with N31Q
notes: as for B2
binding result [4]: binds

B16: PD-1 1.5 PD012 2001 (antibody, human IgG4 S228P, kappa)
heavy: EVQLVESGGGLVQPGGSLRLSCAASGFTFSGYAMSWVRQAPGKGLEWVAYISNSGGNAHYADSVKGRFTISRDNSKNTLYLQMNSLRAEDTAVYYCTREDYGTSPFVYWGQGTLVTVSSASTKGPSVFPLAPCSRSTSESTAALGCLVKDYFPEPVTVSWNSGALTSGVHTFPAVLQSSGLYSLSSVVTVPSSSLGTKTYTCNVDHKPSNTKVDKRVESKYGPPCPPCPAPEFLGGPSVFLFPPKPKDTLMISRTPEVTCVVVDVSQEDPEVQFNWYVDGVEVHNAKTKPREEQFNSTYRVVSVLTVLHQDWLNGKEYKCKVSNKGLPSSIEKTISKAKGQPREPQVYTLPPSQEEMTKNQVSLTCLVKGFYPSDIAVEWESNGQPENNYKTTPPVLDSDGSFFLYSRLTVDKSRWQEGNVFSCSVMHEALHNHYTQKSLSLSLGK
light: QGQSGQGNWLDCQFYSECSVYGGGGSSGGSISSGLLSGRSDNHGGGSDIQLTQSPSSLSASVGDRVTITCRASESVDAYGISFMNWFQQKPGKAPKLLIYAASNQGSGVPSRFSGSGSGTDFTLTISSMQPEDFATYYCQQSKDVPWTFGQGTKLEIKRTVAAPSVFIFPPSDEQLKSGTASVVCLLNNFYPREAKVQWKVDNALQSGNSQESVTEQDSKDSTYSLSSTLTLSKADYEKHKVYACEVTHQGLSSPVTKSFNRGEC
notes: also called PD-12
Kd [1]: 25 nM
ME (masking efficiency, Kd of the activatable antibody divided by Kd of the parental antibody) [2]: 10
Masking Efficiency [3]: 14

B17: PD-1 1.4 PD001 2001 (antibody, human IgG4 S228P, kappa)
heavy: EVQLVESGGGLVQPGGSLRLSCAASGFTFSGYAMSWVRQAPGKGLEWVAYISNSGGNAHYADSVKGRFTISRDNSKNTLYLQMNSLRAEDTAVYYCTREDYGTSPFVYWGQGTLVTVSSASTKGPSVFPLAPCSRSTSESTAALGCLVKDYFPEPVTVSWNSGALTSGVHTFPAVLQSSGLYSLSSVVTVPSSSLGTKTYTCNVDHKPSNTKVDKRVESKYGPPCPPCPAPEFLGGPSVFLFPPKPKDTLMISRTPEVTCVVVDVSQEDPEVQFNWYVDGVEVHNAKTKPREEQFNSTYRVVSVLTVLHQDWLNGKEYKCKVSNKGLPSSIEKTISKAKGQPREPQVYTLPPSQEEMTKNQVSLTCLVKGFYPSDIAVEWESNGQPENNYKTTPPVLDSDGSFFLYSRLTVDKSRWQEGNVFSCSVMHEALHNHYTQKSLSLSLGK
light: QGQSGQGAMSGCSWSAFCPYLAGGGSSGGSISSGLLSGRSDNHGGGSDIQLTQSPSSLSASVGDRVTITCRASESVDSYGISFMNWFQQKPGKAPKLLIYAASNQGSGVPSRFSGSGSGTDFTLTISSMQPEDFATYYCQQSKDVPWTFGQGTKLEIKRTVAAPSVFIFPPSDEQLKSGTASVVCLLNNFYPREAKVQWKVDNALQSGNSQESVTEQDSKDSTYSLSSTLTLSKADYEKHKVYACEVTHQGLSSPVTKSFNRGEC
notes: hIgG4 S228P/hK; also called PD01 (A1.4)
ME (masking efficiency, Kd of the activatable antibody divided by Kd of the parental antibody) [6]: 25

More lines, now with the values ahead:

Kd [5]: 0.34 nM
B3: m245-M5-MHC729 (antibody, V domains shown)
VH: EVQLVESGGGLVKSGGSLKLSCAHSGFSFSSYDMSWVRQTPAKRLEWVATISGGGRYTYYPDSVKGRFTISRDNAKNTLYLQMSGLRSEDTAMYYCASNYYGFDYWGQGTTLTVSS
VL: DIVMTQSHKFMSTSVGDRVSITCKASQDVGTAVAWYQQKPGQSPKLLIYWASTRHTGVPDRFTGSGSGTDFTLTISNVQSEDLADYFCQQYSSYPWTFGGGTKLEIK
notes: mouse hybridoma antibody, mIgG1/K

Kd [5]: 0.22 nM
B7: m245-M3-MHC728 (antibody, V domains shown)
VH: EVKLVESGGGLVKPGGSLKLSCAASGFTFSNYAMSWVRQTPAKRLEWVAYISNGGGDTHYPDSLKGRFTVSRDNAKNTLYLQMSSLKSEDTAMYYCARENYGTSPFVYWGQGTLVTVSA
VL: not shown
notes: mouse hybridoma antibody, mIgG2a/K

binding result [4]: binds
B13: A1.4 (antibody, human IgG4 S228P, kappa)
heavy: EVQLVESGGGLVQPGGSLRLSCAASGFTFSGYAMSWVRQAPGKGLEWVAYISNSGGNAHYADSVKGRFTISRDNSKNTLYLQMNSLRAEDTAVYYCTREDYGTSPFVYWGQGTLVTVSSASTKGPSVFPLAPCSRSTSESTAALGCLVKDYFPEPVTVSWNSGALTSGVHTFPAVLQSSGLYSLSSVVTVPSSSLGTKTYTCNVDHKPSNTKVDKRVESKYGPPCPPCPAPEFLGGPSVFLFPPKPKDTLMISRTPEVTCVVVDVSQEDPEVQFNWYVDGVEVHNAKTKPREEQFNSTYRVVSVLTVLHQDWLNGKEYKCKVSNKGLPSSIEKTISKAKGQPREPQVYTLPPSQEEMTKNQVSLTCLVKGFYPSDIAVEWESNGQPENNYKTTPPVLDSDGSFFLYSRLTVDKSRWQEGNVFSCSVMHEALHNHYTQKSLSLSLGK
light: DIQLTQSPSSLSASVGDRVTITCRASESVDSYGISFMNWFQQKPGKAPKLLIYAASNQGSGVPSRFSGSGSGTDFTLTISSMQPEDFATYYCQQSKDVPWTFGQGTKLEIKRTVAAPSVFIFPPSDEQLKSGTASVVCLLNNFYPREAKVQWKVDNALQSGNSQESVTEQDSKDSTYSLSSTLTLSKADYEKHKVYACEVTHQGLSSPVTKSFNRGEC
notes: humanized, full length hIgG4/hKappa; also called anti-PD-1 A1.4; DyLight-650 A1.4

binding result [4]: binds
B14: A1.6 (antibody, human IgG4 S228P, kappa, V domains shown)
VH: B11 VH
VL: B11 VL with N57D
notes: as for B2

binding result [4]: binds
B15: C1.1 (antibody, human IgG4 S228P, kappa, V domains shown)
VH: B11 VH with G31N, S54G, N57D, A58T, V64L, I70V, T97A, D100N
VL: B11 VL with A13V, V19A
notes: as for B2
